According to publication PMC5888019 (Nucleic Acids Research, 2018):

T1: Xrs2 (Flag-tagged, recombinant) (S. cerevisiae, UniProt P33301 1-854)
T1 sequence (looked up): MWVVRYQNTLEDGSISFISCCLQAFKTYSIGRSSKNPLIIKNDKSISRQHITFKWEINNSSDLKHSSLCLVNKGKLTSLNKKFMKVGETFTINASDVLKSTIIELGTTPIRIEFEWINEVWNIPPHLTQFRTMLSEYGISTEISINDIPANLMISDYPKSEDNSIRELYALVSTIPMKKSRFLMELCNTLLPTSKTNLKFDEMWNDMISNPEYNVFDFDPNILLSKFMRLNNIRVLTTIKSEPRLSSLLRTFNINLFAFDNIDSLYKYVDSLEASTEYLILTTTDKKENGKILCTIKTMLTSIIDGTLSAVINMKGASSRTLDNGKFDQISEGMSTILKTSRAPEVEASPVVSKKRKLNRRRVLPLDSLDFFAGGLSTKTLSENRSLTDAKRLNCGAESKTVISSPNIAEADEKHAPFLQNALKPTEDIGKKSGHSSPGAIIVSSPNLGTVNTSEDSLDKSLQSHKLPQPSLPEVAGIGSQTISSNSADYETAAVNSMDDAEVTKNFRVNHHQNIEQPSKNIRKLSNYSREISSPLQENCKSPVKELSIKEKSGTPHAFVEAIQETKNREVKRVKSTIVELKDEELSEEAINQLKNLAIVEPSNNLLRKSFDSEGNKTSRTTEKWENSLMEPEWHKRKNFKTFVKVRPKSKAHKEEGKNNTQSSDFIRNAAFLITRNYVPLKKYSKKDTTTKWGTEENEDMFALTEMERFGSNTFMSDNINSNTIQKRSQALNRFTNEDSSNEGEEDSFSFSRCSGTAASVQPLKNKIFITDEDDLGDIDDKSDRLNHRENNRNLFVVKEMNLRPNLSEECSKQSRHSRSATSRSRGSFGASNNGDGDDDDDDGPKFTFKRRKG

T2: Rad50 (S. cerevisiae, UniProt P12753 1-1312)
T2 sequence (looked up): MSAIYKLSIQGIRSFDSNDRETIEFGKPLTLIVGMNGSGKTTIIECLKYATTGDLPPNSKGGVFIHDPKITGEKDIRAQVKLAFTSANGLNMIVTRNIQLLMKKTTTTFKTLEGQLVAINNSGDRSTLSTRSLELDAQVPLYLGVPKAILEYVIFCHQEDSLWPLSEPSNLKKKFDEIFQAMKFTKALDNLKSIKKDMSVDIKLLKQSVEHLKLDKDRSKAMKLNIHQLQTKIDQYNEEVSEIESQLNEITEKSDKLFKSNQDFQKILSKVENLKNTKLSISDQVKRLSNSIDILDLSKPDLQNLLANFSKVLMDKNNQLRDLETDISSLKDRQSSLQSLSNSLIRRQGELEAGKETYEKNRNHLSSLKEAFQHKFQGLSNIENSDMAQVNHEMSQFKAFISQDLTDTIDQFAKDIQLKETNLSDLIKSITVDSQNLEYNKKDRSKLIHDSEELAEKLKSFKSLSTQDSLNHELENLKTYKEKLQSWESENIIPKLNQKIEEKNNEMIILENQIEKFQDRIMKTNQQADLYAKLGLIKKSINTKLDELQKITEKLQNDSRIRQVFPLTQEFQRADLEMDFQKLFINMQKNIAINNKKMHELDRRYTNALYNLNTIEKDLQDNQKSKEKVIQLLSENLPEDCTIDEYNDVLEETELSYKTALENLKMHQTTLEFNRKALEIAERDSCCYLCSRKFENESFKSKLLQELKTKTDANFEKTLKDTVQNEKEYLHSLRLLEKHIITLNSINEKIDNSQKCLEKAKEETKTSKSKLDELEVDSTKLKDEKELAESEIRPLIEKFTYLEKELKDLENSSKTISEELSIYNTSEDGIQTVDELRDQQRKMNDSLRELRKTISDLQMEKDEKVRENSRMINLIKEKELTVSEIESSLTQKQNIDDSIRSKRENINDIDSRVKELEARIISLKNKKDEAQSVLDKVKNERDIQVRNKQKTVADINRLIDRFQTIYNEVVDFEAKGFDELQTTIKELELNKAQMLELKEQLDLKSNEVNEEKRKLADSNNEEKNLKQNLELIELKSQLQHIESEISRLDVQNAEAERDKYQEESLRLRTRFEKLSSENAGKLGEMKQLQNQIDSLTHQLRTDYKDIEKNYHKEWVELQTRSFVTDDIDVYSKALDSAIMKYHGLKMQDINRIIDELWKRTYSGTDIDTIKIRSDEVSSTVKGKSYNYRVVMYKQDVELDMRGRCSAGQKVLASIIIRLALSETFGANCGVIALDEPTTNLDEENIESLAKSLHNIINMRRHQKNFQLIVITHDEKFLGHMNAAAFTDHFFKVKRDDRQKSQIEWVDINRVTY

B1: His-tagged Mre11 (wild type) (natural protein, S. cerevisiae, UniProt P32829 1-692, looked up)
chain: MDYPDPDTIRILITTDNHVGYNENDPITGDDSWKTFHEVMMLAKNNNVDMVVQSGDLFHVNKPSKKSLYQVLKTLRLCCMGDKPCELELLSDPSQVFHYDEFTNVNYEDPNFNISIPVFGISGNHDDASGDSLLCPMDILHATGLINHFGKVIESDKIKVVPLLFQKGSTKLALYGLAAVRDERLFRTFKDGGVTFEVPTMREGEWFNLMCVHQNHTGHTNTAFLPEQFLPDFLDMVIWGHEHECIPNLVHNPIKNFDVLQPGSSVATSLCEAEAQPKYVFILDIKYGEAPKMTPIPLETIRTFKMKSISLQDVPHLRPHDKDATSKYLIEQVEEMIRDANEETKQKLADDGEGDMVAELPKPLIRLRVDYSAPSNTQSPIDYQVENPRRFSNRFVGRVANGNNVVQFYKKRSPVTRSKKSGINGTSISDRDVEKLFSESGGELEVQTLVNDLLNKMQLSLLPEVGLNEAVKKFVDKDEKTALKEFISHEISNEVGILSTNEEFLRTDDAEEMKALIKQVKRANSVRPTPPKENDETNFAFNGNGLDSFRSSNREVRTGSPDITQSHVDNESRITHISQAESSKPTSKPKRVRTATKKKIPAFSDSTVISDAENELGDNNDAQDDVDIDENDIIMVSTDEEDASYGLLNGRKTKTKTRPAASTKTASRRGKGRASRTPKTDILGSLLAKKRK
B2: His-tagged Mre11-R522H (natural protein, S. cerevisiae, UniProt P32829 1-692, looked up)
chain: MDYPDPDTIRILITTDNHVGYNENDPITGDDSWKTFHEVMMLAKNNNVDMVVQSGDLFHVNKPSKKSLYQVLKTLRLCCMGDKPCELELLSDPSQVFHYDEFTNVNYEDPNFNISIPVFGISGNHDDASGDSLLCPMDILHATGLINHFGKVIESDKIKVVPLLFQKGSTKLALYGLAAVRDERLFRTFKDGGVTFEVPTMREGEWFNLMCVHQNHTGHTNTAFLPEQFLPDFLDMVIWGHEHECIPNLVHNPIKNFDVLQPGSSVATSLCEAEAQPKYVFILDIKYGEAPKMTPIPLETIRTFKMKSISLQDVPHLRPHDKDATSKYLIEQVEEMIRDANEETKQKLADDGEGDMVAELPKPLIRLRVDYSAPSNTQSPIDYQVENPRRFSNRFVGRVANGNNVVQFYKKRSPVTRSKKSGINGTSISDRDVEKLFSESGGELEVQTLVNDLLNKMQLSLLPEVGLNEAVKKFVDKDEKTALKEFISHEISNEVGILSTNEEFLRTDDAEEMKALIKQVKHANSVRPTPPKENDETNFAFNGNGLDSFRSSNREVRTGSPDITQSHVDNESRITHISQAESSKPTSKPKRVRTATKKKIPAFSDSTVISDAENELGDNNDAQDDVDIDENDIIMVSTDEEDASYGLLNGRKTKTKTRPAASTKTASRRGKGRASRTPKTDILGSLLAKKRK

Key:
[1] = target: T1, Xrs2 (Flag-tagged, recombinant); test: pull-down
Rad50 = target: T2, Rad50; test: pull-down

Binder | binding result [1] | binding result (Rad50)
B1 | binds | –
B2 | binds | binds
